From patent US20210388103A1 (Takeda / Millennium, published 2021)

Assays:
[1] = target: T1, cynomolgus CD38 (cynomolgus monkey, UniProt Q5VAN0 1-301); assay: cell-based or functional assay
[2] = target: T1, cynomolgus CD38; assay: flow cytometry on CHO cells expressing cynomolgus monkey CD38; CHO cells expressing monkey CD38
[3] = target: T1, cynomolgus CD38; assay: binding to monkey lymphocytes; method not described; monkey lymphocytes, not CHO cells
[4] = target: T2, human CD38 (human, UniProt P28907 1-300); assay: binding to CHO cells expressing human CD38; CHO cells expressing human CD38
T2 construct: In the assays: on CHO-K1 cells transfected with full-length human CD38 cDNA, on human blood lymphocytes, RBCs, cell lines and tissue sections; also called human CD38 antigen

T1 sequence (Q5VAN0 whole entry): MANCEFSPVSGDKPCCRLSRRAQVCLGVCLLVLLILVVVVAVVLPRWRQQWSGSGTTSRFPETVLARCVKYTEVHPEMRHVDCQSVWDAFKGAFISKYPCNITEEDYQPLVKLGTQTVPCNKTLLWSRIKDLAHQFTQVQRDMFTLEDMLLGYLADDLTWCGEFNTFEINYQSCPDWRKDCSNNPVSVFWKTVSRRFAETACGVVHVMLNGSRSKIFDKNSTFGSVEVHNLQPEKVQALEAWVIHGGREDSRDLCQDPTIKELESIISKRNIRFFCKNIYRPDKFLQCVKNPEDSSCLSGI

B1: AB79 (antibody, human IgG1, lambda, V domains shown)
VH: EVQLLESGGGLVQPGGSLRLSCAASGFTFDDYGMSWVRQAPGKGLEWVSDISWNGGKTHYVDSVKGQFTISRDNSKNTLYLQMNSLRAEDTAVYYCARGSLFHDSSGFYFGHWGQGTLVTVSS
VL: QSVLTQPPSASGTPGQRVTISCSGSSSNIGDNYVSWYQQLPGTAPKLLIYRDSQRPSGVPDRFSGSKSGTSASLAISGLRSEDEADYYCQSYDSSLSGSVFGGGTKLTVLG
notes: Fully human IgG1 monoclonal antibody; Used unlabelled, Alexa Fluor conjugated or biotinylated, depending on the assay; also called TAK 079
cytolysis of NK cells in monkey whole blood in vitro, mean EC50 [1]: 29.6 nM
EC50 [2]: 4.5 nM
Kd [3]: 4 nM
Kd [4]: 0.7 nM
